Columns and labels:
[1] = biological target: Wild-type GPIbα, residues 1-290, with Avi-tag, biotinylated; test: BLI
A1 short (human) = A1 short (human) (UniProt P04275); test: ITC

## A1+N (from UniProt P04275 1238-1469) (domain or fragment)
[1]
  fold lower affinity than A1 short: 4.3 fold

## A1+C (from UniProt P04275 1264-1486) (domain or fragment)
[1]
  fold lower affinity than A1 short: 2.5 fold

## A1+N+C (from UniProt P04275 1238-1486) (domain or fragment)
[1]
  fold lower affinity than A1 short: 10 fold

## A1+OGly+N (from UniProt P04275 1238-1469) (domain or fragment)
[1]
  fold lower affinity than A1+N: 10 fold
  fold lower affinity than A1 without linkers: 51 fold

## A1 short (from UniProt P04275 1264-1469) (domain or fragment)
[1]
  Kd: 0.18 µM

## Wild-type GPIbα, residues 1-290, without Avi-tag (domain or fragment)
A1 short (human)
  fold higher affinity than A1+OGly+N+C: 39 fold

## A1+OGly+N+C (from UniProt P04275 1238-1489) (domain or fragment)
[1]
  Kd: 9.2 µM
  fold increase in affinity in 10 mM against 150 mM NaCl: 20 fold
  fold increase in kon in 10 mM against 150 mM NaCl: 7 fold
  fold lower affinity than with the O-glycosylated N-linker alone: 1.2 fold

## A1+OGly+C (from UniProt P04275 1264-1489) (domain or fragment)
[1]
  fold lower affinity than A1+C: 2 fold
  fold lower affinity than A1 without linkers: 6 fold

From publication doi:10.1101/2022.01.13.476208
